{"source": "patent US8419708B2", "about": "“Transdermal drug administration apparatus having microneedles” (Hisamitsu Pharmaceuticals Co., Inc., priority 2006, dated 2013)", "format_in_all_cases": "in vitro ADME, hairless mice", "key": {"[1]": {"assay": "Skin permeation with calcein sodium coating and dissolving solution in combination", "experimental": "A transdermal drug administration apparatus having microneedles of FIG. 9 was used. 70 mg of calcein sodium as a drug was mixed with 930 μL of a 5% aqueous polymer (polyvinyl pyrrolidone, dextran) solution. The whole surface of microneedles was coated with 25 μL of the solution. The applied solution was dried at room temperature for 12 hours. Moreover, no polymer was added to a coating agent containing only water.\n(§1) To measure the amount of permeation, the skin was ablated from the trunks of hairless mice and attached to vertical acrylic cells (2.54 cm^2) with the dermis facing a receptor layer. The cells were loaded in a thermostat set to 37° C. The transdermal drug administration apparatus having microneedles of the present invention was affixed to the stratum corneum. Sampling was conducted at a speed of 5.5 mL/hr. after 1 hour and 2 hours and subsequently at 2-hour intervals until the 6th hour. A phosphate-buffered saline (PBS) was used in the receptor layer. A drug content in the receptor solution obtained each time was measured with a fluorophotometer (excitation: 485, fluorescence: 538).\n(§2) Animal type: hairless mice (n=3)\n(§3) Receptor solution: 4 mL of PBS (Sampling volume: 200 μL/time)\n(§4) Area: 2.54 cm^2 (however, the M.N substrate itself is 1 cm^2)\n(§5) Dissolving solution: a saline was added dropwise from a dissolving solution reservoir."}, "[2]": {"assay": "Skin permeation with drug-coated microneedles and dissolving solution in combination (vertical acrylic cells)", "conditions": "FIG. 12", "experimental": "A transdermal drug administration apparatus having microneedles of FIG. 9 was used. 30% aqueous solution was prepared with 100 mg of BSA (bovine serum albumin) and […] of FITC-BSA (fluorescently labeled bovine serum albumin) as drugs and 350 μL of water and used as a mother liquid to prepare 10% and 20% aqueous solutions. The whole surface of microneedles was coated with each of the prepared 10 to 30% aqueous solutions in an amount of 30 μL/patch. The applied solution was dried at room temperature for 12 hours to prepare 3 kinds in total of coated microneedles (→3 mg/patch, 6 mg/patch, and 9 mg/patch) (FIG. 12).\nThe drug injection models used as controls are shown (FIG. 13), 15 μL of a 20% aqueous drug (FITC-BSA) solution was added to a dissolving solution without coating microneedles with the drug, and after coating with a 5% aqueous PVA203 solution in an amount of 30 μL/patch, the drug was added.\nas §1, with “8th” for “6th”\nas §2, §3, §4, §5\nPVA203: polyvinyl alcohol (partially saponified, polymerization degree: 300, KURARAY CO., LTD.)"}, "[3]": {"assay": "Skin permeation with drug coating-water-soluble polymer and dissolving solution in combination", "conditions": "FIG. 14; for skin permeability: 20 μL dissolving solution in combination", "experimental": "A transdermal drug administration apparatus having microneedles of FIG. 9 was used. 400 mg of BSA (bovine serum albumin) and 400 mg of FITC-BSA (fluorescently labeled bovine serum albumin) as drugs were dissolved in 5 mL of water. Likewise, 800 mg of a polymer (PEO, PVA117) was dissolved in 5 mL of water. Both of the solutions were mixed in equal amounts to prepare a coating solution. The whole surface of microneedles was coated with 25 μL of the coating solution. The applied solution was dried with a drier for 30 minutes. Moreover, no polymer was added to a coating agent containing only water.\nas §1, with “8th” for “6th”, “496,” for “485,”, “517).” for “538).”\nas §2\nReceptor solution: 4 mL of PBS (Sampling volume: 500 μL/time)\nas §4, §5\nPEO: polyethylene oxide (molecular weight: 900,000, concentration: 2.5%)\nPVA117S: polyvinyl alcohol (completely saponified, KURARAY CO., LTD.)"}}, "data": [{"compound": "O=C(O)CN(CC(=O)O)Cc1cc2c(cc1O)Oc1cc(O)c(CN(CC(=O)O)CC(=O)O)cc1C21OC(=O)c2ccccc21", "note": "[calcein sodium]", "values": [{"measurement": "permeability-promoting effects by dropwise addition of the dissolving solution", "setting": "[1]; dextran used in the coating", "result": "promoting effects were also observed"}, {"measurement": "permeability-promoting effects by dropwise addition of the dissolving solution", "setting": "[1]; polyvinyl pyrrolidone used in the coating", "result": "promoting effects were also observed"}, {"measurement": "permeability-promoting effects by dropwise addition of the dissolving solution", "setting": "[1]; regardless of the presence or absence of the polymer in the coating, FIGS. 15-17", "result": "Permeability-promoting effects were observed"}]}, {"compound": "FITC-BSA: fluorescently labeled bovine serum albumin, used as model drug in the microneedle coating (mixed with BSA)", "values": [{"measurement": "effect of using the dissolving solution in combination", "setting": "[2]; amount of drug coating 3 mg (of 3, 6 and 9 mg), dissolving solution fixed to 20 μL", "result": "highest"}, {"measurement": "synergistic effect brought about by the dissolving solution", "setting": "[2]; amount of drug coating 9 mg, dissolving solution fixed to 20 μL", "result": "no synergistic effect"}, {"measurement": "skin permeability", "setting": "[2]; drug-coated microneedles, 20 μL dissolving solution (saline) used in combination", "result": "increased"}, {"measurement": "skin permeability", "setting": "[3]; only water, no polymer in coating composition", "result": "increased"}, {"measurement": "skin permeability", "setting": "[3]; polyethylene oxide (molecular weight 900,000) mixed into coating composition", "result": "increased"}, {"measurement": "skin permeability-promoting effects brought about by the addition of the dissolving solution", "setting": "[3]; poorly soluble polymer PVA117 mixed into coating composition", "result": "no skin permeability-promoting effects"}]}]}
